According to US20260242735A1:

How the values were obtained:
Experiment in all cases: alanine scan, flow cytometry, HEK293-T
human CD33 W60A (human) = human CD33 W60A (human) (UniProt P20138)
human CD33 P155A (human) = human CD33 P155A (human) (UniProt P20138)
human CD33 T125A (human) = human CD33 T125A (human) (UniProt P20138)
human CD33 C101A (human) = human CD33 C101A (human) (UniProt P20138)
human CD33 F61A (human) = human CD33 F61A (human) (UniProt P20138)
human CD33 I149A (human) = human CD33 I149A (human) (UniProt P20138)
Sequence of human CD33 I149A (human) (P20138 18-364 I149A limits assumed): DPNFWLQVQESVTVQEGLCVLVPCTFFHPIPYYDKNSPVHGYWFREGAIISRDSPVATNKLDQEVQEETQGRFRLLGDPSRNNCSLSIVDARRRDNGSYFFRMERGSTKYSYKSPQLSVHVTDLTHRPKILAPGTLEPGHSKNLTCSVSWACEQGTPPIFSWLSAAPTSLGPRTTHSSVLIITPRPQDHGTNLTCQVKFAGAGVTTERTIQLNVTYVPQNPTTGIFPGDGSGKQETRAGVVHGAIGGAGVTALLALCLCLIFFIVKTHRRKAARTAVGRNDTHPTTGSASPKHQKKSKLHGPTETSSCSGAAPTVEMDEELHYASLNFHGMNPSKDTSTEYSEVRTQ

human CD33 E63A (human) = human CD33 E63A (human) (UniProt P20138)
human CD33 S104A (human) = human CD33 S104A (human) (UniProt P20138)
Sequence of human CD33 S104A (human) (P20138 18-364 S104A limits assumed): as the sequence (P20138 18-364 I149A limits assumed) above, with S87A, A132I counted along it

human CD33 Y50A (human) = human CD33 Y50A (human) (UniProt P20138)
human CD33 V138A (human) = human CD33 V138A (human) (UniProt P20138)
human CD33 S186A (human) = human CD33 S186A (human) (UniProt P20138)
human CD33 I47A (human) = human CD33 I47A (human) (UniProt P20138)
human CD33 S135A (human) = human CD33 S135A (human) (UniProt P20138)
Sequence of human CD33 S135A (human) (P20138 18-364 S135A limits assumed): as the sequence (P20138 18-364 I149A limits assumed) above, with S118A, A132I counted along it

human CD33 W167A (human) = human CD33 W167A (human) (UniProt P20138)
human CD33 E84A (human) = human CD33 E84A (human) (UniProt P20138)
human CD33 P48A (human) = human CD33 P48A (human) (UniProt P20138)
human CD33 Y49A (human) = human CD33 Y49A (human) (UniProt P20138)
human CD33 S128A (human) = human CD33 S128A (human) (UniProt P20138)
human CD33 L148A (human) = human CD33 L148A (human) (UniProt P20138)
human CD33 S164A (human) = human CD33 S164A (human) (UniProt P20138)
human CD33 E154A (human) = human CD33 E154A (human) (UniProt P20138)
human CD33 P145A (human) = human CD33 P145A (human) (UniProt P20138)
human CD33 H57A (human) = human CD33 H57A (human) (UniProt P20138)
human CD33 A74S (human) = human CD33 A74S (human) (UniProt P20138)
human CD33 K159A (human) = human CD33 K159A (human) (UniProt P20138)
Sequence of human CD33 K159A (human) (P20138 18-364 K159A limits assumed): as the sequence (P20138 18-364 I149A limits assumed) above, with A132I, K142A counted along it

human CD33 G123A (human) = human CD33 G123A (human) (UniProt P20138)
Sequence of human CD33 G123A (human) (P20138 18-364 G123A limits assumed): as the sequence (P20138 18-364 I149A limits assumed) above, with G106A, A132I counted along it

human CD33 P189A (human) = human CD33 P189A (human) (UniProt P20138)
human CD33 A108S (human) = human CD33 A108S (human) (UniProt P20138)
human CD33 S54A (human) = human CD33 S54A (human) (UniProt P20138)
Sequence of human CD33 S54A (human) (P20138 18-364 S54A limits assumed): as the sequence (P20138 18-364 I149A limits assumed) above, with S37A, A132I counted along it

human CD33 D51A (human) = human CD33 D51A (human) (UniProt P20138)
Sequence of human CD33 D51A (human) (P20138 18-364 D51A limits assumed): as the sequence (P20138 18-364 I149A limits assumed) above, with D34A, A132I counted along it

human CD33 N76A (human) = human CD33 N76A (human) (UniProt P20138)
human CD33 S102A (human) = human CD33 S102A (human) (UniProt P20138)
human CD33 E170A (human) = human CD33 E170A (human) (UniProt P20138)
human CD33 T191A (human) = human CD33 T191A (human) (UniProt P20138)
human CD33 F118A (human) = human CD33 F118A (human) (UniProt P20138)
Sequence of human CD33 F118A (human) (P20138 18-364 F118A limits assumed): as the sequence (P20138 18-364 I149A limits assumed) above, with F101A, A132I counted along it

human CD33 V82A (human) = human CD33 V82A (human) (UniProt P20138)
Sequence of human CD33 V82A (human) (P20138 18-364 V82A limits assumed): as the sequence (P20138 18-364 I149A limits assumed) above, with V65A, A132I counted along it

human CD33 E85A (human) = human CD33 E85A (human) (UniProt P20138)
Sequence of human CD33 E85A (human) (P20138 18-364 E85A limits assumed): as the sequence (P20138 18-364 I149A limits assumed) above, with E68A, A132I counted along it

human CD33 I105A (human) = human CD33 I105A (human) (UniProt P20138)
Sequence of human CD33 I105A (human) (P20138 18-364 I105A limits assumed): as the sequence (P20138 18-364 I149A limits assumed) above, with I88A, A132I counted along it

human CD33 G188A (human) = human CD33 G188A (human) (UniProt P20138)
human CD33 L161A (human) = human CD33 L161A (human) (UniProt P20138)
human CD33 L92A (human) = human CD33 L92A (human) (UniProt P20138)
human CD33 S124A (human) = human CD33 S124A (human) (UniProt P20138)
human CD33 G151A (human) = human CD33 G151A (human) (UniProt P20138)
human CD33 N53A (human) = human CD33 N53A (human) (UniProt P20138)
human CD33 K52A (human) = human CD33 K52A (human) (UniProt P20138)

Sequence of human CD33 T125A (human) (P20138 18-364 T125A limits assumed): as the sequence (P20138 18-364 I149A limits assumed) above, with T108A, A132I counted along it
Sequence of human CD33 W60A (human) (P20138 18-364 W60A limits assumed): as the sequence (P20138 18-364 I149A limits assumed) above, with W43A, A132I counted along it
Sequence of human CD33 P155A (human) (P20138 18-364 P155A limits assumed): as the sequence (P20138 18-364 I149A limits assumed) above, with A132I, P138A counted along it

Refmab #7 (WM53) (antibody) showed a Mean % WT Binding (human CD33 W60A (human)) of 2.1 % WT binding, a Mean % WT Binding (human CD33 P155A (human)) of 107 % WT binding and a Mean % WT Binding (human CD33 T125A (human)) of 91.3 % WT binding. It also gave a Mean % WT Binding (human CD33 C101A (human)) of 1.8 % WT binding, a Mean % WT Binding (human CD33 F61A (human)) of 123 % WT binding and a Mean % WT Binding (human CD33 I149A (human)) of 96.9 % WT binding. The Mean % WT Binding (human CD33 E63A (human)) was 93 % WT binding, the Mean % WT Binding (human CD33 S104A (human)) was 117 % WT binding and the Mean % WT Binding (human CD33 Y50A (human)) was 1 % WT binding. It also gave a Mean % WT Binding (human CD33 V138A (human)) of 91 % WT binding, a Mean % WT Binding (human CD33 S186A (human)) of 93.4 % WT binding and a Mean % WT Binding (human CD33 I47A (human)) of 50.2 % WT binding. The Mean % WT Binding (human CD33 S135A (human)) was 101 % WT binding, the Mean % WT Binding (human CD33 W167A (human)) was 127 % WT binding and the Mean % WT Binding (human CD33 E84A (human)) was 109 % WT binding. For the same substance, the Mean % WT Binding (human CD33 P48A (human)) was 42.5 % WT binding, the Mean % WT Binding (human CD33 Y49A (human)) was 13.7 % WT binding and the Mean % WT Binding (human CD33 S128A (human)) was 179 % WT binding. It also gave a Mean % WT Binding (human CD33 L148A (human)) of 96.7 % WT binding, a Mean % WT Binding (human CD33 S164A (human)) of 123 % WT binding and a Mean % WT Binding (human CD33 E154A (human)) of 108 % WT binding. It also gave a Mean % WT Binding (human CD33 P145A (human)) of 102 % WT binding, a Mean % WT Binding (human CD33 H57A (human)) of 112 % WT binding and a Mean % WT Binding (human CD33 A74S (human)) of 118 % WT binding. It also gave a Mean % WT Binding (human CD33 K159A (human)) of 110 % WT binding, a Mean % WT Binding (human CD33 G123A (human)) of 76 % WT binding and a Mean % WT Binding (human CD33 P189A (human)) of 119 % WT binding. The Mean % WT Binding (human CD33 A108S (human)) was 120 % WT binding, the Mean % WT Binding (human CD33 S54A (human)) was 100 % WT binding and the Mean % WT Binding (human CD33 D51A (human)) was 9.2 % WT binding. For the same substance, the Mean % WT Binding (human CD33 N76A (human)) was 93.9 % WT binding, the Mean % WT Binding (human CD33 S102A (human)) was 111 % WT binding and the Mean % WT Binding (human CD33 E170A (human)) was 118 % WT binding. The Mean % WT Binding (human CD33 T191A (human)) was 116 % WT binding, the Mean % WT Binding (human CD33 F118A (human)) was 3.2 % WT binding and the Mean % WT Binding (human CD33 V82A (human)) was 108 % WT binding. For the same substance, the Mean % WT Binding (human CD33 E85A (human)) was 126 % WT binding, the Mean % WT Binding (human CD33 I105A (human)) was 56.1 % WT binding and the Mean % WT Binding (human CD33 G188A (human)) was 127 % WT binding. The Mean % WT Binding (human CD33 L161A (human)) was 120 % WT binding, the Mean % WT Binding (human CD33 L92A (human)) was 89.9 % WT binding and the Mean % WT Binding (human CD33 S124A (human)) was 81.8 % WT binding. For the same substance, the Mean % WT Binding (human CD33 G151A (human)) was 121 % WT binding, the Mean % WT Binding (human CD33 N53A (human)) was 140 % WT binding and the Mean % WT Binding (human CD33 K52A (human)) was 76.8 % WT binding.
